From patent US8287851B2, “Use of interleukin 17E for the treatment of cancer” (Lorus Therapeutics Inc., priority 2005, dated 2012)

T1: murine IL-17E receptor (Mus musculus, UniProt Q9JIP3)
T1 construct: murine IL-17E receptor present on the pre-B cell line 70Z/3; endogenous in cells; host or cells: murine pre-B cell line 70Z/3
T1 sequence (Q9JIP3 18-499): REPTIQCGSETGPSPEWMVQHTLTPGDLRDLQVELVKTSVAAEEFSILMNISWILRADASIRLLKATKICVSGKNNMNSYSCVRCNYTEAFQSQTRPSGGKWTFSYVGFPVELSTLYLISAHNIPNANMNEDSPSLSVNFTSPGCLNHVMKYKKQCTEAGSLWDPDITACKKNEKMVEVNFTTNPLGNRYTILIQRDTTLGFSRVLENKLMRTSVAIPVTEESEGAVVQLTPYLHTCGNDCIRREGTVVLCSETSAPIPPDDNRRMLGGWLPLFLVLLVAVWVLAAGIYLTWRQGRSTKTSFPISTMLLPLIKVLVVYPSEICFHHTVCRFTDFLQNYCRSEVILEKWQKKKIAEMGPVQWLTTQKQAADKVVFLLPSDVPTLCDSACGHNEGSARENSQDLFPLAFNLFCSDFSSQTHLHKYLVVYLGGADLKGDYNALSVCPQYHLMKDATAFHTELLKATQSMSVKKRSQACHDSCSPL

B1: murine IL-17E: Murine IL-17E from R&D Systems; predominant form starting at Val 17 of GenBank NP 542767 (protein)
chain: VSLRIQEGCSHLPSCCPSKEQEPPEEWLKWSSASVSPPEPLSHTHHAESCRASKDGPLNSRAISPWSYELDRDLNRVPQDLYHARCLCPHCVSLQTGSHMDPLGNSVPLYHNQTVFYRRPCHGEEGTHRRYCLERRLYRVSLACVCVRPRVMA
B2: human IL-17E: Recombinant human IL-17E from PeproTech; two 145 amino acid chains, predominant form starting at Tyr 33 of GenBank AAG40848 (protein, listed as Homo sapiens)
chain: YSHWPSCCPSKGQDTSEELLRWSTVPVPPLEPARPNRHPESCRASEDGPLNSRAISPWRYELDRDLNRLPQDLYHARCLCPHCVSLQTGSHMDPRGNSELLYHNQTVFYRRPCHGEKGTHKGYCLERRLYRVSLACVCVRPRVMG

Columns and labels:
[1] = molecular target: T1, murine IL-17E receptor; assay: FACS binding to IL-17E receptor on pre-B cell line 70Z/3; details: 1 μg/10^6 cells, 30 minutes at 4° C.
Procedure: The ability of human and murine interleukin 17E to bind to the IL-17E receptor was examined using the murine pre-B cell line 70Z/3 (Paige, C. J., et al. (1981) Nature 292:631-3).
1×10^6 70Z/3 cells/sample were incubated with either murine or human IL-17E (1 μg/10^6 cells) for 30 minutes at 4° C. After washing twice, cells that had been incubated with murine IL-17E were incubated with biotin-conjugated goat anti-mouse IL17E and phycoerythrin (PE)-Cy5.5-conjugated streptavidin. Cells that had been incubated with human IL-17E were incubated with biotin-conjugated goat anti-human IL17E-biotin and phycoerythrin (PE)-Cy5.5-conjugated streptavidin. As negative controls, cells were stained with antibodies as described without preincubation with human or murine IL-17E. Samples were then fixed with 0.5% paraformaldehyde prior to FACS analysis.

[2] = system: splenic B cells; assay: Splenic B cell numbers and activation in C8161 tumour bearing mice (flow cytometry); assay type: in vivo, CD-1 nude mice; details: C8161-engrafted mice
Procedure: The increase in B cells was examined in BD-BRM-treated CD-1 nude mice. Briefly, the mice with human melanoma xenografts were treated for 4 weeks with either BD-BRM or PBS, as described in the preceding examples. Splenocytes were examined by flow cytometry for B cells using anti-IgM antibodies.
Antibodies fluorescein isothiocyanate (FITC)-anti-mouse IgM (eB121-15F9; IgG2a), phycoerythrin (PE) anti-mouse CD86 (GL1; IgG2a) and PE anti-mouse CD80 (16-10A1; hamster IgG) were purchased from eBioscience (San Diego, Calif.).
Flow cytometry was performed as described above. Briefly, splenocytes were isolated individually from CD1-nude C8161 tumour bearing mice treated 4 weeks with BD-BRM or PBS. Red blood cells were removed, followed by surface staining with (A) anti-IgM antibody-FITC or (B) anti-IgM-FITC and anti-CD80-PE+anti-CD86-PE by flow cytometry.
(§1) The effect of interleukin 17E on increased percentage of splenic eosinophils and B cells and the proportion of activated splenic B cells was examined. CD1-nude mice engrafted with C8161 human melanoma cells were treated with either PBS, murine IL-17E, or human IL-17E as described previously. At the endpoint of the experiment, spleens were isolated from treated mice, stained with markers specific for eosinophils (CCR3+), B cells (either IgM+ or CD19+), and B cell activation (CD-80+, CD86+), and examined by flow cytometry. Flow cytometry was performed as described in Example 4 above.
The percentage of eosinophils was determined by surface staining the granulocyte-gated population with phycoerythrin (PE)-conjugated anti-mouse CCR3. The percentage of B cells in the spleen was examined by surface staining with phycoerythrin (PE)-conjugated anti-mouse CD19. The proportion of activated splenic B cells was determined by staining with FITC-conjugated anti-mouse IgM together with PE-conjugated anti-mouse CD80 and PE-conjugated anti-mouse CD86. Statistical analysis was performed to compare eosinophil and B cell numbers/activation. P values <0.01 were considered to be significant.
In order to confirm that the effect of BD-BRM on splenic B cells as described in Example 5 is due to interleukin 17E activity, the effect of interleukin 17E on numbers and activation status of splenic B cells was examined. CD1-nude mice engrafted with C8161 human melanoma cells were treated with either PBS or murine IL-17E as described previously. At the endpoint of the experiment, spleens were isolated from treated mice, stained with markers specific for B cells (IgM+), and B cell activation (CD-80+, CD86+), and examined by flow cytometry. Flow cytometry was performed as described in Example 4 above.
Splenocytes were analyzed for the percentage of B cells by surface staining with FITC-conjugated anti-mouse IgM antibodies. Activated B cells were determined by surface staining with FITC-conjugated-anti-mouse IgM antibodies, and PE-conjugated-anti-mouse CD80 and PE-conjugated-anti-mouse CD86. Statistical analysis was performed to compare B cell numbers/activation. P values <0.01 were considered to be significant.

[3] = system: B cell linker protein BLNK; assay: BLNK phosphorylation in B cell lymphoma cell line WEHI-231 (Western blot); assay type: cell-based; details: 0.21 μg per 1.5×10^6 WEHI-231 cells, 0, 2, 5 minutes
Source text: The effect of IL-17E on activation of signaling pathways in B cells was examined using the B cell lymphoma cell line WEHI-231 (Lanier L. L., et al. (1981) J. Immunol. 126:626-31). Specifically, the activation status of the protein tyrosine kinase Lyn and the B cell linker protein BLNK (Tsubata, T., et al., (2001) Int Rev Immunol 20:675-8) were examined. An increased level of the phosphorylated forms of these proteins is indicative of activation.
A total of 1.5×10^6 cells per sample were stimulated in vitro with 0.21 μg of either human IL-17E or murine IL17E at 37° C. Cells were lysed at time points t=0, 2, and 5 minutes in lysis buffer for 30 minutes on ice, followed by centrifugation for 10 minutes. Samples containing approximately 25 μg of protein were separated by SDS-PAGE, followed by transfer to membranes for Western blotting.
For detection of phosphorylated BLNK, Western blots were incubated with rabbit anti-phospho-BLNK antibodies, followed by horseradish peroxidase (HRP)-conjugated anti-rabbit antibodies.
To assess equivalence in protein loading among lanes in both experiments, blots were stripped of antibodies and incubated with mouse anti-GAPDH antibodies and HRP-conjugated anti-mouse antibodies, followed by chemiluminescence-based detection.

[4] = system: eosinophils (CCR3+) in spleen; assay: Eosinophils (CCR3+) in spleen of C8161 tumour xenografted mice; assay type: in vivo, CD-1 nude mice; details: C8161-engrafted mice, Example 21
Procedure: Briefly, single cell suspensions of spleen cells were obtained by meshing and passing through a cell strainer (70 um; Bectin Dickinson) to separate fibrous tissue. Erythrocytes were lysed with ACK (0.155 M ammonium chloride, 0.1 mM disodium EDTA, 0.01 M potassium bicarbonate, pH 7.3) for 5 minutes on ice. The single cell suspensions of spleen cells were then analyzed by flow cytometry for the presence of eosinophils by surface staining with an antibody to CCR3 using the method as described in Example 13.
as §1, with “Flow cytometry was performed as described in Example 4 above.” left out
The percentage of eosinophils was determined by surface staining the granulocyte-gated population with phycoerythrin (PE)-conjugated anti-mouse CCR3. […] The proportion of activated splenic B cells was determined by staining with FITC-conjugated anti-mouse IgM together with PE-conjugated anti-mouse CD80 and PE-conjugated anti-mouse CD86. […]

| binding to murine IL-17E receptor on 70Z/3 cells (FACS) [1] | Molecule | percentage of splenic B cells (CD19+) as compared to PBS ([2]; Example 21) | proportion of activated B cells (IgM, CD80, CD86) in the spleen as compared to PBS ([2]; Example 21) | percentage of splenic B cells (IgM+) as compared to PBS ([2]; Example 22) | proportion of activated B cells (IgM, CD80, CD86) in the spleen as compared to PBS ([2]; Example 22) | levels of phosphorylated BLNK protein [3] | percentage of splenic eosinophils (CCR3+, granulocyte-gated) as compared to PBS [4] |
| --- | --- | --- | --- | --- | --- | --- | --- |
| bound | B1 | significantly increased | significantly increased | significantly increased | significantly increased | increased | significantly increased |
| bound | B2 | significantly increased | significantly increased | – | – | increased | significantly increased |
